Reference: article PMC3845908 (Journal of the American Chemical Society, 2012)
Where a chain is given by its changes, count along the chain named. Names and notes keep the numbering of the source. Like-named read-outs stand apart in the source and are kept apart here.

B1: Streptomyces lividans KcsA R64C, MTSL spin-labelled (natural protein, UniProt P0A334 1-160, looked up)
chain: MPPMLSGLLARLVKLLLGRHGSALHWRAAGAATVLLVIVLLAGSYLAVLAERGAPGAQLITYPCALWWSVETATTVGYGDLYPVTLWGRLVAVVVMVAGITSFGLVTAALATWFVGREQERRGHFVRHSEKAAEEAYTRTTRALHERFDRLERMLDDNRR
modifications: MTSL spin label on the cysteine at 64
B2: Streptomyces lividans KcsA F114C full length, MTSL spin-labelled (natural protein, UniProt P0A334 1-160, looked up)
chain: B1 chain with C64R, F114C
modifications: MTSL spin label on the cysteine at 114

Legend:
[1] = molecular target: the molecule itself; assay: pulsed double electron-electron resonance
[2] = molecular target: the molecule itself; assay: pulsed double electron-electron resonance; remark: listed apart in the source

| Protein | binding result [1] | binding result [2] |
| --- | --- | --- |
| B1 | binds |  |
| B2 |  | binds |
